This is an account of results in paper PMC6392133, “Structure and Catalytic Mechanism of a Bacterial Friedel–Crafts Acylase” (Chembiochem, 2018).

The target of test [1] is T1, PpATase (multicomponent acyltransferase, PhlA/PhlB/PhlC) (Pseudomonas protegens, UniProt Q4K420).
T1 construct: codon-optimized phlA, phlB, phlC ORFs co-expressed in E. coli; size-exclusion purified for crystals, cell-free extract for activity; heterododecamer Phl(A2C2)2B4; with 2,4-diacetylphloroglucinol biosynthesis protein PhlA; 2,4-diacetylphloroglucinol biosynthesis protein PhlB
The experiment in a line: X-ray crystal structure ([…] Å) of crystal soaked with MAPG. The format is binding. Particulars: PG bound at PhlC active site (4 of 8 PhlC copies) next to acetylated Cys88; formed in the crystal from soaked MAPG.

Test [2] deals with PhlA subunit of the acyltransferase from Pseudomonas protegens DSM 19095 (PpATase) (Pseudomonas protegens DSM 19095). The experiment in a line: crystal structure; PpATase complex (PhlA, PhlB, PhlC co-expressed, purified by SEC); hexagonal crystal form (P6_(1)22, untreated, 2.8 Å) and orthorhombic crystal form (P2_(1)2_(1)2_(1), soaked with MAPG, 3.4 Å); crystallised at 289 K; protein-protein interactions in the crystal analysed with the EBI-Pisa server. In general terms: In gel filtration, larger molecules generally elute earlier.

For test [3], the target named is PhlC subunit of the acyltransferase from Pseudomonas protegens DSM 19095 (PpATase) (Pseudomonas protegens DSM 19095). Described as above.

`Oc1cc(O)cc(O)c1` [PG, benzene‐1,3,5‐triol]: the “X-ray crystal structure (3.4 Å) of crystal soaked with MAPG” value in test [1] is “This density was compatible with an acetylated Cys88 residue and with a (deacetylated) PG molecule”.

For orientation: stoichiometry N means the number of molecules, sites or subunits per partner or assembly. Take “PhlA subunit of the acyltransferase from Pseudomonas protegens DSM 19095 (PpATase) (natural protein)”: the stoichiometry N in test [2] came to 2.

In test [3], “PhlC subunit of the acyltransferase from Pseudomonas protegens DSM 19095 (PpATase) (natural protein)” came in with a stoichiometry N of 2.
